The record followed here is patent US20260201058A1.

The target of test [1] is human PD-L1 on GS-C2 cells (cells overexpressing human PD-L1, GenScript, M00613) (human) (UniProt Q9NZQ7). The test can be described thus: flow cytometry on GS-C2 cells. (A flow cytometer gives signals particle by particle.)
For test [2] the target is unchanged. The test can be described thus: cell-based or functional assay.
For test [3], the target named is monkey PD-L1 (Cyno-PD-L1) on cells (monkey (cyno)). The test can be described thus: flow cytometry on 293F-cyno PD-L1 cells.

Sequence of human PD-L1 on GS-C2 cells (cells overexpressing human PD-L1, GenScript, M00613) (human) (Q9NZQ7 19-290): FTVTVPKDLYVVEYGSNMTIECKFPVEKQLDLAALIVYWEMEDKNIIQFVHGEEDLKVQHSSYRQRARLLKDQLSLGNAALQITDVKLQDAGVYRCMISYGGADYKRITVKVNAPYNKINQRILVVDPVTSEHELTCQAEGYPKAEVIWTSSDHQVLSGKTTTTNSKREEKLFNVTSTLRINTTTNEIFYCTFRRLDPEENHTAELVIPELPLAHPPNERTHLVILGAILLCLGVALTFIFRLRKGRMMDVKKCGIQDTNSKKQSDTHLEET

For the substance “control antibody Benchmark-ATE (monoclonal antibody, Atezolizumab)”, the 50% effective concentration (EC50) was determined as 0.694 nM in test [1] and 1.34 nM in test [3]. The substance further displayed an EC50 (nM), blocking of T cell PD-1/PD-L1 signaling pathway (GS-C2 cells with Jurket-NFAT-PD1 cells, luciferase) in test [2] of 2.38 nM.

A word on the EC50: it is the concentration giving half of the maximal effect.
